# Source: article PMC9472132 (Journal for Immunotherapy of Cancer, 2022)
# Where two headings read alike, the source gives them in different places.
# B1: MK-5890 (humanized anti-human CD27 agonist antibody, hIgG1) (antibody, V domains shown)
# VH: EIQLVQSGAEVKKPGASVKVSCKASGYTFTNYGMNWVKQAPGQGLKWMGWINTNTGEPTYAEEFKGRFTFTLDTSISTAYMELSSLRSEDTAVYYCAREGDAMDYWGQGTTVTVSS
# VL: EIVLTQSPATLSLSPGERATLSCSASSSVSYMHWYQQKPGQAPKRWIYDTSKLASGVPARFSGSGSGTDYSLTISSLEPEDFAVYYCQQWNSYPFTFGQGTKLEIK
# B2: varlilumab analog (anti-CD27 fully human IgG1 antibody, made in-house from published patented sequences) (antibody, V domains shown)
# VH: QVQLVESGGGVVQPGRSLRLSCAASGFTFSSYDMHWVRQAPGKGLEWVAVIWYDGSNKYYADSVKGRFTISRDNSKNTLYLQMNSLRAEDTAVYYCARGSGNWGFFDYWGQGTLVTVSS
# VL: DIQMTQSPSSLSASVGDRVTITCRASQGISRWLAWYQQKPEKAPKSLIYAASSLQSGVPSRFSGSGSGTDFTLTISSLQPEDFATYYCQQYNTYPRTFGQGTKVEIK
# Legend:
# [1] = target: T1, human CD27 expressed on CHO-K1 cells (human, UniProt P26842); test: flow cytometry on cells
# [2] = target: T1, human CD27 expressed on CHO-K1 cells; test: ELISA
# [3] = target: rhesus monkey CD27 expressed on CHO-K1 cells (Macaca mulatta, UniProt F7BYS2); test: ELISA
# [4] = target: human CD27-IgG fusion protein (Homo sapiens (Human)., UniProt P26842); test: SPR
# [5] = target: rhesus monkey CD27-IgG fusion protein (Macaca mulatta, UniProt F7BYS2); test: SPR
# [6] = target: T2, human CD27 on primary peripheral blood T cells (Homo sapiens (Human)., UniProt P26842); test: flow cytometry on cells
# [7] = target: T3, rhesus monkey CD27 on primary peripheral blood T cells (Macaca mulatta, UniProt F7BYS2); test: flow cytometry on cells
# [8] = target: T2, human CD27 on primary peripheral blood …; test: flow cytometry on cells; remark: listed apart in the source
# [9] = target: T3, rhesus monkey CD27 on primary …; test: flow cytometry on cells; remark: listed apart in the source
Binder,IC50 [1] [nM],EC50 [2] [nM],EC50 [3] [nM],Kd [4] [nM],koff [4] [s⁻¹],kon [4] [M⁻¹ s⁻¹],Kd [5] [nM],koff [5] [s⁻¹],kon [5] [M⁻¹ s⁻¹],EC50 [6] [nM],EC50 [7] [nM],EC50 [8] [nM],EC50 [9] [nM]
B1,0.24,0.072,0.054,5.1,0.0011,220000,4.3,0.001,230000,0.32,0.17,0.3,0.22
B2,2.85,0.325,0.193,0.63,0.00012,190000,0.97,0.00022,230000,1.54,1.58,1.3,1.92
